Biological target: T1, recombinant human His-tagged p53 protein (residues 1–312) (human, UniProt P04637 1-312)
T1 construct: p53, human, residues 1-312; source: final dialysis with 0.2 mM ZnCl2
Test: NMR antagonist-induced dissociation assay (AIDA), 1D proton spectra; Trp NHε side-chain signals of the MDM2–p53 complex; 0.1 mM proteins, 25 °C, 20 mM Tris-HCl, 150 mM KCl, pH 7.4, 5 mM β-mercaptoethanol, 0.02% NaN3; also after RM37 (0.2 mM)
Details: both partners purified

T1 sequence (P04637 1-312): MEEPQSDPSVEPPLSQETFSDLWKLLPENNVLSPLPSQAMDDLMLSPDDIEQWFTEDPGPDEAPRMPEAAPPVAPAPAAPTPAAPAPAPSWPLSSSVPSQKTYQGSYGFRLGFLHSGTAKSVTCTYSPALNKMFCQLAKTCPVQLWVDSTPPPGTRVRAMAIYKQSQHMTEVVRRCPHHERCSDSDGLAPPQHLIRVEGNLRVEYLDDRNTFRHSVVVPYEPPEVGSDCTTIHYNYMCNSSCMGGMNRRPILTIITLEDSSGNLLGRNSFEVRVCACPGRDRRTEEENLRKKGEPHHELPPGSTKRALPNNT

B1: recombinant human His-tagged N-terminal region of MDM2 (residues 1–118) (domain or fragment, UniProt Q00987 1-118, looked up)
chain: MCNTNMSVPTDGAVTTSQIPASEQETLVRPKPLLLKLLKSVGAQKDTYTMKEVLFYLGQYIMTKRLYDEKQQHIVYCSNDLLGDLFGVPSFSVKEHRKIYTMIYRNLVVVNQQESSDS
notes: MDM2 (HDM2), human, N-terminal region, residues 1-118; Cloned in a derivative of the vector pET-46Ek/LIC (Novagen); that vector probably adds the His tag at the N-terminus (surmised); No cleavage of the tag is told; also called HDM2
  binding result: binds
